# Data reported in US20190382455A1 (Sanofi, published 2019).
# Key:
# [1] = target: T1, MMP-9 proform (UniProt P14780 20-707); experiment: SPR (Biacore T200), biotinylated fusion molecule captured on CAP chip, MMP-9 proform as analyte
# T1 construct: Used as analyte in SPR; also called proform MMP-9; proform MMP9
# [2] = target: T2, activated MMP-9 (UniProt P14780 107-707, limits assumed); experiment: SPR (Biacore T200), biotinylated fusion molecule captured on CAP chip, activated MMP-9 as analyte
# T2 construct: Used as analyte in SPR
# T2 sequence (P14780 107-707 limits assumed): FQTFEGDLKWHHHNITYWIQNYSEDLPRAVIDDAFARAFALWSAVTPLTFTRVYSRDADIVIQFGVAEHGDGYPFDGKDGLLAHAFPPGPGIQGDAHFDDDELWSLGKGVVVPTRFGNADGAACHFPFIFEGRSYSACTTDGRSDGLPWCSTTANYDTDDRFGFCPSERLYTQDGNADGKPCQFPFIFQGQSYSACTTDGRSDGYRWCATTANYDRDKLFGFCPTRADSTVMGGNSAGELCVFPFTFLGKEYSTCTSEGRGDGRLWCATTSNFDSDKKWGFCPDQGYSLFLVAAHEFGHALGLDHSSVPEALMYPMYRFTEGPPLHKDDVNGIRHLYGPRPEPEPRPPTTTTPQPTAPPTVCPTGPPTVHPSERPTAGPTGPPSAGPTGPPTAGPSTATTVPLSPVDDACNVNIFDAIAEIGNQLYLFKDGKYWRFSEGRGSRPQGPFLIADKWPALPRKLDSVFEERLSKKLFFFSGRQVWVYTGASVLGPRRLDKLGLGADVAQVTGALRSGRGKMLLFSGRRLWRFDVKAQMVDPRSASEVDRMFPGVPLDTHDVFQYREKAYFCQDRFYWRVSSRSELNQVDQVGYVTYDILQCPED
# T1 sequence (P14780 20-707 limits assumed): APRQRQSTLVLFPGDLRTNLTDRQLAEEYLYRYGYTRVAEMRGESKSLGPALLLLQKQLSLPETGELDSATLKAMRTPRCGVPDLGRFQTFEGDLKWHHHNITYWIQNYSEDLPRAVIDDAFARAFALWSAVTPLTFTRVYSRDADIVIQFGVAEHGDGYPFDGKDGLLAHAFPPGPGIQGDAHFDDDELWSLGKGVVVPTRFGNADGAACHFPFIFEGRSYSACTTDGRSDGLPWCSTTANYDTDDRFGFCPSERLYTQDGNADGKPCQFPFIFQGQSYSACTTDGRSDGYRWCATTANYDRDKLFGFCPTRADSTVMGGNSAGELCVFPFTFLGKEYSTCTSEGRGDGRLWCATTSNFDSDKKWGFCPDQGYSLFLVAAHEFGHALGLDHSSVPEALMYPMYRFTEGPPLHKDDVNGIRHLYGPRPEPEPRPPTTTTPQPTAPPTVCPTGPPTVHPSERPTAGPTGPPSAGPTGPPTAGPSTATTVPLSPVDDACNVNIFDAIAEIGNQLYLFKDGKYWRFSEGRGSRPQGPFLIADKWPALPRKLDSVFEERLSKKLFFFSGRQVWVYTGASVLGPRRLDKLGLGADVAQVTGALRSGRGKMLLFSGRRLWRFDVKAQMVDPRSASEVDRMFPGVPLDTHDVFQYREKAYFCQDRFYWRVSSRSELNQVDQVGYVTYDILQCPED
binder,measurement,setting,value
"fusion molecule of SEQ ID NO: 134 (designed binder, biotinylated with EZ-Link NHS-PEG4-Biotin for capture on the chip, also called RA10680550) QDSTSDLIPAPPLSKVPLQQNFQDNQFQGKWYVVGVAGNTILREDKDPGKMNAAIYELKEDKSYDVTDVRFIRKKCHYYIDTFVPGSQPGEFTLGNIKSYPGTTSQLVRVVSTNYNQHAMVFFKIVRQNREIFWITLYGRTKELTSELKENFIRFSKSLGLPENHIVFPVPIDQCIDGGGGGSGGGGSQDSTSDLIPAPPLSKVPLQQNFQDNQFQGKWYVVGWAGNTALREDKDPPKMPAVIYELKEDKSYDVTDVQFPEKECIYSTITFVPGSQPGEFTLGGIKSSPGQTSHLVRVVSTNYNQHAMVFFKYVTQNREGFNIALYGRTKELTSELKENFIRFSKSLGLPENHIVFPVPIDQCIDGGGGGSGGGGSQDSTSDLIPAPPLSKVPLQQNFQDNQFQGKWYVVGEAGNLARREDKDPMKMMATIYELKEDKSYDVTEVRFRHKKCKYDIVTFVPGSQPGEFTLGLIKSDPGQTPELVRVVSTNYNQHAMVFFKKVVQNREYFWITLYGRTKELTSELKENFIRFSKSLGLPENHIVFPVPIDQCIDGGGGGSGGGGSQDSTSDLIPAPPLSKVPLQQNFQDNQFQGKWYVVGHAGNQWLREGRDPRKMWATIYELKEDKSYDVTDVDFAIKKCLYRITTFVPGSQPGEFTLGNIKSHPGGTSGLVRVVSTNYNQHAMVFFKFVIQNREAFFITLYGRTKELTSELKENFIRFSKSLGLPENHIVFPVPIDQCIDG",binding result,[1],no binding (tested: ≥1 µM)
same,binding result,[2],no binding (tested: ≥1 µM)
